From the nanobody polyreactivity screen of Harvey et al. (2022)

Experiment: yeast display, Sf9 membrane polyspecificity reagent, FACS + sequencing; frameworks hold sequencing errors
In short: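 A nanobody's polyreactivity label depends on the gate it was sorted from. Yeast display cells were stained with 10% biotinylated, detergent-solubilized Sf9 membrane reagent for 1 hour at 4 °C, enriched on streptavidin microbeads and sorted by FACS. The low and high (top ~1%) gates were set on anti-HA fluorescence for expression and streptavidin fluorescence for reagent binding.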

Sequence | polyreactivity (PSR sort gate)
QVQLVESGGGLVQAGGSLRLSCAASGSTFDSNVMGWYRQAPGKEWELVAAISIGDSTNYADSVKGRFTISRDNAKKTVYLQMNSLKPEDTAVYSCNATYSRGGYWYFGFDWGQGTQVTVSS | low polyreactivity
QVQLEESGGGLVQAGGSLRLSCAASGSTFVYNAMGWYRQAPGKEMELVAAISRRGGSTYYADSVKGRFTISRDNAKNTVYLQMNSLKPEDTAVYYCAADPSYYTYFSFDLSESDYWGQGTQVTVSS | low polyreactivity
QVQLVESGGGLVQAGGSLRLSCAASGSTFYYYAMGWYRQAPGKERELVATITSTGRTNYADSVKGRFTISRDNAKNTVYLQMNSLKPEDTAVYYCAALRRIQRPEYGYWGQGTQVTVSS | low polyreactivity
QVQLVESGGGLVQAGGSLRLSCAASGSILGDNAMAWYRQAPGKERELVAAISYRGGSTYADSVKGRFTISRANAKNTVYLQMNSLKPEDTAVYYCNKTDIDDSQYREYEYWGQGTQVTVSS | low polyreactivity
QVQLVESGGGLVQAGGILRLSCAASGSIIHFYAKGGYREAPGKEWELVAAITSGTSTYYADSVKGRFTISRDNAKNTVYLQMNSLKPDDTAVYYCAAEASHSYYNAYPSYCGSDYWGQGTQVTVSS | low polyreactivity
QVQLVESGGGLVQAGGSLRLSCAASGITFSRYAMGWYRQAPGKERELVAAISSGGSTYYADSVKGRFTISRDNAKNPVYLQMNSLKPEDTAVYYCAAVILSRWASYREYYYWGQGTQVTGSS | high polyreactivity
QVQLVESGGGLVQAGGSLRLSCAASGSIFYWNTMGWYRQAPGKERELVAAISYSGGSTYYADSVKGRFTISRDNAKNTVYLQMNSLKPEDTAVYYCAAKYYNRFYYWGQGTQVTVSS | high polyreactivity
QVQLVESGGGLVQAGGSLRLSCAASGFTFWEYAMGWYRQAPGKERELVAAISSRGTRTYYADSVKGRFTISRDNAKNTVYLQMNSLKPEDTAVYYCATAIPDPDYIHNYWGQGTQVTVSS | high polyreactivity
QVQLVESGGGLVQAGGSLRLSCAASGSIFVKNVMGWYRQAPGKERELVAAITRGGRTYYADSVKGRFTISRDNAKNTVYLQMNSLKPEDTAVYYCNAYRLSYTYGYWGQGTQVTVSS | high polyreactivity
QVQLVESAGGLVQAGGSLRLSCAASGFTFYRNAIGWYRQEPGTERELVAGITRSGGSTYYADSVKGRLTISRDNAKNTVYLQMNSLKPEDTAVYYCNKAFGGDKYSGTYDYWGQGTQVTVSS | high polyreactivity
QVQLVESGGGLVQAGGSLRLSCAASGYTAYTYTMGWYRQAPGKVREWVAAMSRRSDSTYADSVKGRFTISRDNAKNTVYLQMNSLKPEDTADYYCAAVRVSYRSLSKSYYWGQGTQVTVSS | high polyreactivity
QVQLVESGGGLVQAGGSLRLSCAASGFIFPLYTMGWYRQAPGKERELVAANSVTGGSTYYADSVKGRFTISRDNAKNTVYLQMNSLKPEETAVYYCNAYLFFLNRVWSFDYWGQGTQVTVSW | high polyreactivity
QVQLVESGGGLVQAGGSLRLSCAASGSIFGLYAMGWYRQAPGKERELVAAINQSGGSTSYADSVKGRFTISRDNAKNTVYLQMNSLKPEDTAVYYCAADSAFYTGSDYGWSDYDYWGQGTQVTVSS | low polyreactivity
QVQLVESGGGLVQAGGSLRLSCAASGSTVEYYAMGWYRQAPGKERELFAAISSGPSTTYADSVKGRFTISRDNAKNTVYLQMYSLKREDTAVYYCARLDGTTQALFGYDYWGQGTQVTVSS | low polyreactivity
QVQLEESGGGLVQAGGSLRLSCAASGSILTDNAMGWYRQAPGKERELVAANSYSGASTYYADSVKGRFTISRDNAKNTVYLQMNSLKPEDTAVFYCAARYVSATPQLKARVRYYYWGQGTQVTVSS | high polyreactivity
QVQLVESGGGLVQAGGSLRLSCAASGSTLNSYVMGWYRQAPGKERELVATIRSGSSTNYADSVNGRFTISRDNAKNTVYLQMNSLKPEDTAVYYCAADAYSLCYDSWGQGTQVTVSS | low polyreactivity
QVQLVESGGGLVQAGGSLRLSCAASGGTFTHYGMGWYRQAPGKERELVAAITWTASSTYYADSVKGRFTISRDNAKNTVYLQMNSLKPEDTAVYYCATSYYYWGHTYDYWGQGTQVTVSS | low polyreactivity
QVQLVESGGGLVQAGGSLRLSCAASGRTFGYNAMGRYRQAPGKERELVAAIRYSGGSTYYADSVKGRFTISRDNAKNTVYLQMNSLKPEDTAVYYCAKESRRYYRGYYYWGQGTQVTVSS | high polyreactivity
QVQLVESGGGLVQAGGSLRLSCAASGSIFTYYAMGWYRQAPGKERELVAGITRGGSTYYAESVKGRFTISRDNAKNTVYLQMNSLKPEDTAVYYCNARWVLFYTGDGQEHDYWGQGTQVTVSS | low polyreactivity
QVQLVESGRGLVQAGGSLRLSCAASGRIFRYYTMGWYRQAPGKERELVATISWNGSNTYYADSVKGRFTISRDNAKNTVYLQMNSLKPEDTAVYYCAAGVLPGLYNGARLFDYWGQGTQVTVSS | low polyreactivity
QVQLVESGGGLVQAGGSLRLSCAASGRTFYGYGMGWYRQAPGKERELVAGISVRGGSTYYADSVKGRFTISRDNAKNTVYLQMNSLKPEDTAVYYCAALGWRPTYYYWGHGTQVTVSS | high polyreactivity
QVQNEESGGGLVQAGGSLRLSCAASGRNFSSYAMGWYRQAPGKERELVAAISRAGGTYYADSVKGRFTISRDNAKNTVYLQMNSMKPEDTAVYYCAARQSVYGLRSDFYYWGQGTQVTVSS | high polyreactivity

Sequence | polyreactivity (PSR sort gate)
QVQLVESGGGLVQAGGSLRLSCAASGSTFYSYAMGWYRQAPGKEREFVAAIRYSGGRTYADSVKGRFSISRDNAKNTVYLQMNSLKPEDTAVYYCAAVYYSYRWPYDYWGQGTQVTVSS | high polyreactivity
QVQLVESGGGLVQAGGSLRLSCAAYGRTFRTNAMGWYRQAPGKERELVAAISTGGGITNYADSVKGRFTISRDNAKNTVYLQMNSLKPEDTAVYYCNADIYTWFQIGGYQYDYWGQGTQVTVSS | low polyreactivity
QVQLVESGGGLVQAGGSLRLSCAASGRIFSRYAMGWYRQAPVKERELVATITRSGARTYYADSVKGRFTISRDNAKNTVYLQMNSLKPEDTAVYYCATPYKYVTGEDYWGQGTQVTVSS | high polyreactivity
QVQLVESGGGLVQAGGSLRFSCAASGITFRRYAMGWYRQAPGKERELVASISRGGSTYYADSVKGRFTISRDNAKNTVYLQMNSLKPEDTAVYYCAADVAWRYDYWGQGTQVNVSS | high polyreactivity
QVQLVESGVGLVQAGGSLRLSCAASGSIFLHNAMGWYRQAPGKERELVAGITGSGGSTYYADSVKGRFTISRDNAKNTVYLQMNSLKPEDTAVYYCAAERYGYERYYWGQGTQVTVSS | high polyreactivity
QVQLQESGGGLVQAGGSLRLSCAASGYISHADEMGWYRQAPGKEHELVASISNGGSTNYADSVKGRFTISRDNAKNTVYLQRNSLKSEDTAVYYCAAWTGQVDIHYYWGQGTQVTVSS | low polyreactivity
QLQLVESGGGLVQAGASLRLSCAASGSILWPSARGWYRQAPGKERELVAAISTGGSTYYADSVKGRFTISRDNAKNTVYLQMNSLKPEDTAVYYCAAYVDYSVYFGGGYWGQGTQVTVSS | low polyreactivity
QVQLVESGGGLVQAAGSLRLSCAASGLPSVDAMGWYRQAPGKERELVAAISLTGSSTYYADSVKGRFTISRDNAKNTVYLQRNSLKPEDTAVYYCAADSSYTPNDDNWGQGTQVTVSS | low polyreactivity
QVQLVESGGGLVQAGGSLRLSCAASGSTFQWNALGWYRQAPGKERELVASITDSGGRTNYADSVKGRFTISRDNAKNTVYLQMNSLKPEDTAVYYCNAAGYRRSTWWYDYWGQGSQVTVSS | high polyreactivity
QVQLVESGGGLVQAGGSLRLSCAASGRIFDSNAMGWYRPAPGKERELVAAISYDGGSTYYADSVKGRFTISRDNAKNTVYLQMNSLKPEDTAVYYCAADDGWYYYYGYDYWGQGTQVTVSS | low polyreactivity
QVQLVESGGGLVQAGGSLRISCAASGSILGLYAMGWYRQAPGKERELVAAITYRGGRTDYADSVKGRFTISRDNAKNTVYLQMNSLKPEDTAVYYCAAGYLPRPRYSTSYLYYYWGQGTQVTVSS | high polyreactivity
QVQLVESGGGLVQAGGSLSLSCAASGSTFVENAMGWYRPAPGKERELVAGISIGGITYYADSVKGRFTISRDNAKNTVYLQMNSLKPEDTAVYYCGKRHKRTRNKYYYWGQGTQVNVSS | high polyreactivity
QVQLVESGGGLVQAGGSLRLSCAASGRIFPANAMGWYRQAPGKERELVAGITWRGDSTYYADSVKGRFTISRDNAKNTVYLQMNSLKPEDTAVYYCAATFRYTKLYYWGHGTQVTVSS | low polyreactivity
QVQLVESGGGLVQAGGSLRLSCAASGSTFYAYTKGWSRQAPGKERELVADISSGGGTYYADSVKGRFTISRDNAKNTVYLQMNSLKPEDTAVYYCNADWRVGRQLSKAKIPYDYWGQGTQVTVSS | low polyreactivity
QVQLVESGGGLVQAGCSLRLSCAASGLIFYTYAMGWYRQAPGKEREFVAAISRRGGSTYYADSVKGRFTISRDNAKNTVYLQMNSLKPEYTAVYYCNARYTYPRPYEEYYYWGQGTQVTVSS | high polyreactivity
QVQLVESGGGLVQAGGSLRLSCAASGRIFYINAMGWYRQAPGTERELVAAITEGGVSTYYADSVKGRFTSSRDNAKNTVYLQMNSLKPEDTAVYYCNTTGGPDGIVIYEYWGQGTQVTVSS | low polyreactivity
QVQLVESGGGLVQAGGSLRLSCAASGSTFGPNGMGWYRHAPGKERELVARIDRIGGGTYYADSVKGRFTISRDNANNTVYLQMNSLKPEDTAVYYCAAYGPSPFSQGYAKGDYWGQGTQVTVSS | low polyreactivity
QVQLVESGGGLVQAGGSLRLSCAASGRTFARYTMGWYRQAPGKERELVASITRGGSTYYADSVKGRFTISRDNAKNTVYLQMNSLKPEDTAVYYCAARFPQHNYWAMDYWGQGTQVTVSS | high polyreactivity
QVQLVESGGGLVQAGGSLRLSCAASGFIYFGNAMGWYRQAPGKERELVAAINSNGSSTYYADSVKGRFTISRDNAKNTVYFLMNSLQPEDTAVYYCAKKISVHEGAWPSNPDGDYWGQGTQVTVSS | low polyreactivity
QVHLVESGGGLVQAGGSLRLSCAASGFTILTYGMGWYRQAPGKERELVAAIRWSGGRTYYADSVKGRFTISRDNAKNTVYLQMNSLKPEDTAVYYCAARYKFSTIRGVDYWGQGTQVTVSS | high polyreactivity
QVQLVESGGGLVQAGGSLRLSCDASGSTFDVNTMGWYRQAPGKERELVAAIRLRGGSTYYADSVKGRFTISRDNAKNTVYLLMISLKPEDTAVYYCAADYTLIYDYCGQGTQVTVSS | low polyreactivity
